The source of these data is patent US9023998B2, “Near infrared fluorogen and fluorescent activating proteins for in vivo imaging and live-cell biosensing” (Carnegie Mellon University, priority 2013, dated 2015).

Changes are numbered by the printed parent chain. Where only a bound is given, the exact number is not on record here.

In data set [1] the test system is dL9 (SEQ. ID NO: 1). As to the kind of experiment: Fluorescence activation of SKC638 by purified dL9. Format: biochemical. Conditions: molar excess of purified dL9, excitation 630 nm, non-normalized spectrum. An excerpt: The non-normalized emission spectrum shown (black, solid) was acquired using a Quantamaster fluorometer (PTI) by excitation through monochromators set at 630 nm. The primary peak near 730 nm is likely due to contaminating SKC602, while a second, smaller peak is clearly observed near 823 nm, and is likely contributed by the extended chromophore of SKC638.

The nature of data set [2]: Spectral properties of fluoromodules (Table 1). It is filed as physicochemical. Conditions: fluoromodule (FAP:fluorogen complex). An excerpt: The spectral properties of fluoromodules assembled from combinations of dL9.2 (SEQ. ID. NO. 2) and dL9.5 (SEQ. ID. NO. 3) with SKC602 and SKC728 are listed in Table 1. dL9.2 (SEQ. ID. NO. 2) is an asymmetric light chain (VL-VL) tandem dimer based upon dL9 (SEQ. ID. NO. 1), hosting the V70A mutation on the N-terminal light chain. dL9.5 (SEQ. ID. NO. 3) is a symmetric light chain (VL-VL) tandem dimer based upon dL9.2 (SEQ. ID. NO. 2) with the V70A mutation propagated to C-terminal chain, and an additional Y96H mutation that is present on both chains. These genetically encoded fluorescent labels yield good brightness in the far-red/NIR spectral regime when combined with their cognate fluorogens.
The dL9.2:SKC602 (SEQ. ID. NO. 2:SKC602) fluoromodule (black, solid) emits at longer wavelengths than existing biliverdin-binding infra-red fluorescent proteins, while retaining the ability to be excited effectively by common illumination sources such as the HeNe laser line (633 nm) as well as lamps equipped with Cy5™-compatible excitation filters. Spectra of dL9.5 (SEQ. ID. NO. 3) bound to SKC602 are highly similar. Excitation and emission spectra are normalized to the highest value within each data set.
(§1) Relative fluorescence quantum yield assessments were conducted via the gradient method (Williams, Winfield and Miller, Relative Fluorescent Quantum Yield Using a Computer-controlled Luminescence Spectrometer, Analyst, vol. 108, 1067-1071 ([…]) against reference dyes Cy5.18 in PBS, pH 7.4 (Mujumdar, et al., Cyanine Dyes Labeling Reagents: Sulfoindocyanine Succinimidyl Esters, Bioconjugate Chemistry, Vol. 4, No. 2, 105-111 (1993) and oxazine-1 in absolute ethanol (Worth, et al., Integrating Sphere Setup for the Traceable Measurement of Absolute Photoluminescence Quantum Yields in the Near Infrared, Analytical Chemistry, 84, 1345-1352 (2012). Fluoromodules were formed by combining a quantity of fluorogen (SKC602 or SKC728) at least 20-fold above the fluoromodule dissociation constant with a molar excess of purified FAP (dL9.2 (SEQ. ID. NO. 2) or dL9.5 (SEQ. ID. NO. 3)). The solutions were incubated at 4° C. with rocking for at least one hour prior to measurements in order to ensure complete complex formation. The optical path length for all sample measurements was 1.00 cm, and all solutions were at room temperature during measurement. Absorbance measurements were taken using a PerkinElmer Lambda 45 UV/VIS spectrometer, while fluorescence emission spectra were measured using a Quantamaster fluorometer equipped with dual excitation and emission monochromators (Photon Technology International). Fluorescence emission was integrated using Spekwin32 (Menges 2013, http://www.effemm2.de/spekwin/spekwin_copyright/de.html. Linear fits and quantum yield ratios were calculated in Microsoft Excel 2013.

Data set [3] is described as follows: Relative fluorescence quantum yield of fluoromodules, gradient method. Conditions: relative to Cy5.18 in PBS pH 7.4 and oxazine-1 in ethanol; molar excess of FAP; room temperature. It is filed as physicochemical. The protocol: as §1
The nature of data set [4]: Fluoromodule activity/stability with respect to pH. It is filed as physicochemical. The note with it: for Longer-term stability of fluorescence across pH: 24 hours. The protocol:
[…] 4. The averages of five replicates per pH increment are shown as filled circles; bars denote extreme values within each replicate set, and normalization is to the maximum value within all data points. […] Stability of this degree allows the fluoromodule probe to be useful in an extremely wide range of cellular contexts.
A set of titrating buffers occupying pH values from 2.0 to 10.0 in 0.5 unit increments was prepared at room temperature in accordance to a published recipe (Carmody, An Easily Prepared Wide Range Buffer Series, Journal of Chemical Education, Vol. 38, No. 11, pp. 559-560 (1961)) adjusted to accommodate sodium chloride at a concentration of 300 mM. Fluoromodules consisting of dL9.5 bound to SKC602 were prepared by addition of 16.7 μL HPLC-purified SKC602 (300 μM stock in EtOH/5% acetic acid) to 1.30 mL Buffer (10.0 mM Tris, pH 8.0 at RT, supplemented with 300 mM NaCl). Purified dL9.5 was added (1.5 mL, approximately 50 μM stock) and incubated at 4° C. for 90 minutes. […] Fluorescence was then measured using a TECAN Infinite M1000 plate reader with 695/10 nm excitation and 735/10 nm emission windows at a gain of 111. Data was processed in Microsoft Excel 2010: The mean fluorescence intensity value for each pH increment was calculated, and all mean values were divided by the maximum mean intensity in order to normalize fluorescence intensities measured across the entire pH range to a value of 1.0. Extreme values within each set of five replicates calculated to a percentage of the mean for each pH increment in order to indicate the degree of variation across replicate reads.

The test system of data set [5] is HEK293 cells expressing dL9.5. Kind of data set: Confocal imaging of HEK293 cells expressing dL9.5 in various cellular contexts. Format: cell-based. Conditions: cytoplasmic dL9.5-eGFP, 200 nM SKC602, fluorogen not washed away. An excerpt: The expressed construct was imaged using an Andor Revolution XD spinning disk confocal (GFP 488:525/50, dL9.5 (SEQ. ID. NO. 3) 640:685/70 AND 640:794/160, 60×1.49 NA oil immersion objective) and the results are shown in FIG. 5. […] The fluorogen was not washed away prior to imaging.
Imaging conditions were similar to those described for obtaining FIG. 5.
CYTOPLASM. HEK293 cells were transfected with, and stably expressing the pCYdL9.5eGFP vector, were thawed from a cryostock and maintained in DMEM/10% FBS for four passages prior to fluorescence imaging procedures. Immediately prior to imaging, growth media was exchanged for HBSS (pH 7.4) supplemented with SKC602 (200 nM final concentration). The cells were allowed to recover at 37° C. with 5% CO2 for 20-30 minutes, and fluoromodule activity under in vivo conditions within the cytoplasm was imaged using an Andor Revolution XD spinning disk confocal microscope (60×1.49 NA oil immersion objective, excitation at 640 nm, emission in far-red: 685/70 filter, and NIR: 794/160 filter). The same cells were also imaged for eGFP activity (excitation at 488 nm, emission via 525/50 nm filter). […] In accordance with the fluoromodule emission spectrum shown in FIG. 2, this emission filter allows the microscope camera to detect a large portion of the fluoromodule emission, and consequently, the observed signal appears brighter. One must note that intensities cannot be directly compared between channels, due to considerations non-exclusively including: differences in excitation light intensities, exposure and capture times, the transmission profile of each emission filter, and the quantum efficiency of the iXON3 DU897 (back-illuminated) camera across the range of emitted wavelengths. An evenly distributed fluorescence signal is observed in these cells, with no bright foci that would indicate protein aggregation, and the fluoromodule signal intensity scales with that of eGFP.
PLASMA MEMBRANE. […]

Turning to `CN(C)c1ccc(/C=C/C=C/C(=C2C=CC(=[N+](C)C)C=C2)c2ccc(N(C)C)cc2)cc1` [SKC638], the “Emission peak contributed by extended chromophore” value in data set [1] is ~823 nm.

B1: dL9.5:SKC602: fluoromodule: FAP dL9.5 (SEQ. ID. NO. 3) non-covalently complexed with fluorogen SKC602 (protein)
chain: SYELTQPPSVSVSPGQTARITCSGDALPKQYTYWYQQKAGQAPVLVIYKDTERPSGIPERFSGTSSGTTATLTISGVQAEDEADYYCQSADSSGSHVFFGGGTKVTVLSGGGGPGGGSGGGSGGGSGGGSYELTQPPSVSVSPGQTARITCSGDALPKQYTYWYQQKAGQAPVLVIYKDTERPSGIPERFSGTSSGTTATLTISGVQAEDEADYYCQSADSSGSHVFFGGGTKVTVLS
modifications: non-covalent fluorogen SKC602; Fluorogen Activating Peptide (FAP) sequence
For B1, in data set [2], the “Brightness (ε · Φ · 1 × 10^−3)” value came out at 20; the “Em (nm), emission maximum” value is reported as 731 nm; the “Ex (nm), excitation maximum” value worked out at 702 nm; the ε turned out to be 120000 M⁻¹ cm⁻¹. The “Φ (fluorescence quantum yield)” value in data set [3] was found to be 0.17. In addition, the “Fluorescence stability across pH range” value in data set [4] (Carmody buffer with 300 mM NaCl, pH 2-10, after three hours) is “exceptional stability across a broad pH range”. The “Change of mean fluorescence in each pH solution over one hour” value in data set [4] (pH 2.0-10.0, reads every minute for one hour) was ≤ 3%. Also, in data set [5], the “NIR fluorescence in cytoplasm of HEK293 cells” value is “produces NIR fluorescence”.

B2: dL9.2:SKC728: fluoromodule: FAP dL9.2 (SEQ. ID. NO. 2) non-covalently complexed with fluorogen SKC728 (protein)
chain: B1 chain with H96Y, A199V, H225Y
modifications: non-covalent fluorogen SKC728; Fluorogen Activating Peptide (FAP) sequence
In the case of B2, in data set [2], the “Brightness (ε · Φ · 1 × 10^−3)” value came to 19; the “Em (nm), emission maximum” value was found to be 733 nm; the “Ex (nm), excitation maximum” value is on record as 703 nm; the ε worked out at 90000 M⁻¹ cm⁻¹. The “Φ (fluorescence quantum yield)” value in data set [3] was 0.21. In addition, the “Longer-term stability of fluorescence across pH” value in data set [4] is “remained stable over 24 hours”.

B3: dL9.5:SKC728: fluoromodule: FAP dL9.5 (SEQ. ID. NO. 3) non-covalently complexed with fluorogen SKC728 (protein)
chain: B1 chain
modifications: non-covalent fluorogen SKC728; Fluorogen Activating Peptide (FAP) sequence
For B3, in data set [2], the “Brightness (ε · Φ · 1 × 10^−3)” value was determined as 23; the “Em (nm), emission maximum” value came out at 733 nm; the “Ex (nm), excitation maximum” value is listed as 703 nm; the ε stood at 98000 M⁻¹ cm⁻¹. For the same molecule, in data set [3], the “Φ (fluorescence quantum yield)” value turned out to be 0.23.

B4: dL9.2:SKC602: fluoromodule: FAP dL9.2 (SEQ. ID. NO. 2) non-covalently complexed with fluorogen SKC602 (protein)
chain: B1 chain with H96Y, A199V, H225Y
modifications: non-covalent fluorogen SKC602; Fluorogen Activating Peptide (FAP) sequence
Take B4: in data set [2], the “Brightness (ε · Φ · 1 × 10^−3)” value is 20; the “Em (nm), emission maximum” value turned out to be 731 nm; the “Ex (nm), excitation maximum” value stood at 702 nm; the ε amounted to 120000 M⁻¹ cm⁻¹. Besides, the “Φ (fluorescence quantum yield)” value in data set [3] came out at 0.17. The “Longer-term stability of fluorescence across pH” value in data set [4] is reported as “remained stable over 24 hours”.
